Patent publication US7629323B2, “Manipulation of neuronal ion channels” (Northwestern University, priority 2003, dated 2009)

Columns and labels:
[1] = biological target: T1, Kv3.4a/Kv3.1b heteromeric channels (Rattus norvegicus, UniProt P25122+Q63734); type: cell-based; settings: HEK293 cells, n=4
T1 construct: expressed in transfected cells; host or cells: HEK293
T1 sequence (Q63734 1-625): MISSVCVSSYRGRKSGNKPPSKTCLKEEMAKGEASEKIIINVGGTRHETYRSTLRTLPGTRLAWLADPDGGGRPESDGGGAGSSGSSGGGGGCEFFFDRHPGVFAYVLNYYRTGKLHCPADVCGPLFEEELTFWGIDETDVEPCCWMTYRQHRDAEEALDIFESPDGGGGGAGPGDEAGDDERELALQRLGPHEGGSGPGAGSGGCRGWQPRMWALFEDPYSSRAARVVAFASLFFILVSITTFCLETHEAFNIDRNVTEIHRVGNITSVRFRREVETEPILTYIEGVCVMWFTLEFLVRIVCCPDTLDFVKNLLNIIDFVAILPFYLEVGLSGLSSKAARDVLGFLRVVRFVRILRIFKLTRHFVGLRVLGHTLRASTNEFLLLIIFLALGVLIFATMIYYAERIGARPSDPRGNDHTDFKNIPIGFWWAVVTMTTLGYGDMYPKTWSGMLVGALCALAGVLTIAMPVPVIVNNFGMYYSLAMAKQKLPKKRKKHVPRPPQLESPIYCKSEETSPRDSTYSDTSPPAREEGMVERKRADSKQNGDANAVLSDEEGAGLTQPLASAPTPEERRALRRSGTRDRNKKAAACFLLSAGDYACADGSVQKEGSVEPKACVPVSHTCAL
T1 sequence (P25122 1-585): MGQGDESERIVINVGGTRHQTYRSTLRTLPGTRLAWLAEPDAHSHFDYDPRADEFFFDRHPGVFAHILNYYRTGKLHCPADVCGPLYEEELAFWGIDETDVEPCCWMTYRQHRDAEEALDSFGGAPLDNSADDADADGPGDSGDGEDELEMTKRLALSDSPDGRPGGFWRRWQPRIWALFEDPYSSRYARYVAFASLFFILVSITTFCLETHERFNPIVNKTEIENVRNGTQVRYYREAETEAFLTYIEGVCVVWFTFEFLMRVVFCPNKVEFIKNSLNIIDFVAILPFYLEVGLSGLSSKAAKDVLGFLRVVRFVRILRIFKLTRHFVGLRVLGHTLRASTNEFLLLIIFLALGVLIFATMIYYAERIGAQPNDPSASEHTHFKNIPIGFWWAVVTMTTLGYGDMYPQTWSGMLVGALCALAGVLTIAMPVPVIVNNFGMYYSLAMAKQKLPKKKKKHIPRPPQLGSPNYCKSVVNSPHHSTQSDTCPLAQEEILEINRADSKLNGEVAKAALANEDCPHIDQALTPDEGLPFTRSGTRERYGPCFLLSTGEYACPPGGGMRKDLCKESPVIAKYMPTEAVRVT
Text: Electrophysiology. Whole-cell recordings used standard techniques^27,28. The internal solution consisted of (in mM): 30-90 K2SO4, 0-60 N-methyl-D-glucamine, 2 MgCl2, 40 HEPES, 5 EGTA, 12 phosphocreatine, 2 Na2ATP, 0.2 Na3GTP, and 0.1 leupeptin, pH 7.2 with H2SO4 (osmolarity 260-270 mOsm/l). The external solution consisted of (in mM): 140 Na-isethionate, 2 KCl, 4 MgCl2, 10 HEPES, 12 glucose and 0.001 TTX, pH 7.35 with NaOH (osmolarity 295-305 mOsm/l). The internal solution for current clamp recordings consisted of (in mM) 110 potassium methylsulphate, 2 MgCl2, 40 HEPES, 5 EGTA, 12 phosphocreatine, 2 Na2ATP, 0.2 Na3GTP, and 0.1 leupeptin, pH 7.2 with H2SO4 (osmolarity 260-270 mOsm/l). In the case of current clamp recordings, TTX was omitted from external solution. For the recordings in the presence of Ca^+2 ions EGTA was omitted from internal solution and 4 mM of MgCl2 was substituted by 2 mM of CaCl2 and 2 mM of MgCl2. […] Recordings were obtained with Axon Instruments 200 patch-clamp amplifier and controlled and monitored with a PC running pClamp software (version 7.0) (Axon Instruments Inc., Union City, Calif.). […] After seal rupture, series resistance (2-10 MΩ) was compensated (75-90%) and periodically monitored. […]
Single cell RT-PCR (scRT-PCR). […] In the case of co-transfection with Kv3.4a and Kv3.1b cDNA, single cell RT-PCR was used to confirm the presence of both mRNAs in the recorded cell. […]

Kv3.4 channel = biological target: T2, Kv3.4 channel (Rattus norvegicus, UniProt Q63734); settings: COS-transfected cells, reversible; read-out: IC50, inhibition of Kv3.4 current; cited from earlier work
T2 construct: host or cells: COS cells
T2 sequence (Q63734 1-625): T1 sequence (Q63734 1-625)

In the case of “BDS-I (AAPCFCSGKPGRGDLWILRGTCPGGYGYTSNCYKWPNICCYPH)”, the “block of Kv3.4a/Kv3.1b heteromeric channels” value [1] is listed as “strong at the beginning of a depolarizing step and then waned with maintained depolarization” and the IC50 (Kv3.4 channel) is listed as 47 nM.
